Measurements as given in PMC12412624, “Engineered Cas12j‐8 is a Versatile Platform for Multiplexed Genome Modulation in Mammalian Cells”.
Numbering of substitutions follows the chain as printed.

How the values were obtained:
[1] = system: T1, dCas12j-8 E100R E100R;D369A;E567A;D658A (bacteriophage (metagenome)); settings: HEK293T cells; panel 1c (compare within a panel only); scale: mean GFP / mean GFP of wild type, printed, no background subtraction
T1 sequence: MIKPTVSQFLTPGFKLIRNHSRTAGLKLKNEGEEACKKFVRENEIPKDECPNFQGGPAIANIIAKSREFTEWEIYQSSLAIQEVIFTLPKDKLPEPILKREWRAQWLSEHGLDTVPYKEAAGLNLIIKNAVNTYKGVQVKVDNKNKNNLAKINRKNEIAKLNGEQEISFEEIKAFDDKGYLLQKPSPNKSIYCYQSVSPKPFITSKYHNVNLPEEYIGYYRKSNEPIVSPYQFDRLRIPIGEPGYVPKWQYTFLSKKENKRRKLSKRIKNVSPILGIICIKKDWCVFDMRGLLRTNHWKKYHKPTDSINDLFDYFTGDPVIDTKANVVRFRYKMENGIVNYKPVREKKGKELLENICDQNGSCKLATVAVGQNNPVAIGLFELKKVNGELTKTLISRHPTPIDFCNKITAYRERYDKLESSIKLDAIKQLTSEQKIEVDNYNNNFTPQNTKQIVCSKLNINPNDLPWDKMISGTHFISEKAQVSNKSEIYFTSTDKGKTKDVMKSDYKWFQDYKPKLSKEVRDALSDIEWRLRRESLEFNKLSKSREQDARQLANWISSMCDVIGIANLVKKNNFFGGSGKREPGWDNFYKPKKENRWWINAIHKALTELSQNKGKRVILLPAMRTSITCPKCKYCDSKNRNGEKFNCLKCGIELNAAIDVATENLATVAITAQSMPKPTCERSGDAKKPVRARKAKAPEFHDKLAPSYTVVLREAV

[2] = system: T2, dCas12j-8 D416R D416R;D369A;E567A;D658A (bacteriophage (metagenome)); settings: HEK293T cells; panel 1c (compare within a panel only); scale: mean GFP / mean GFP of wild type, printed, no background subtraction
T2 sequence: T1 sequence with R100E, D416R

[3] = system: T3, dCas12j-8 E101R E101R;D369A;E567A;D658A (bacteriophage (metagenome)); settings: HEK293T cells; panel 1c (compare within a panel only); scale: mean GFP / mean GFP of wild type, printed, no background subtraction
T3 sequence: T1 sequence with R100E, E101R

[4] = system: T4, dCas12j-8 E258R+D313R+D495R+E547R E258R;D313R;D495R;E547R;D369A;E567A;D658A (bacteriophage (metagenome)); settings: HEK293T cells; panel 1e (compare within a panel only); scale: mean GFP / mean GFP of wild type, printed, no background subtraction
T4 sequence: T1 sequence with R100E, E258R, D313R, D495R, E547R

Sequence: CUUUCAAGACUAAUAGAUUGCUCCUUACGAGGAGACACUCCCUAUCAGUGAUAGAG / TTNACTCCCTATCAGTGATAGAG / CTCTATCACTGATAGGGAGTNAA [TetO]
- binding signal [1]: 0.834
- binding signal [2]: 0.46
- binding signal [3]: 0.711
- binding signal [4]: 4.81
